Assays:
[1] = target: HLA-A*8001 (A80) single antigen on Luminex beads (human); experiment: Luminex single antigen bead assay, iBeads vs regular beads, IVIg 1:4
[2] = target: HLA-A*6802 (A68) single antigen on Luminex beads (human); experiment: as above
[3] = target: HLA-A*6901 (A69) single antigen on Luminex beads (human); experiment: as above
HLA-B*0801 (B8) (human) = experiment: Luminex regular beads (#7), IVIg diluted 1:4
HLA-B*1510 (B71) (human) = experiment: Luminex regular beads (#7), IVIg diluted 1:4
HLA-B*1502 (B75) (human) = experiment: Luminex regular beads (#7), IVIg diluted 1:4
HLA-B*1401 (B64) (human) = experiment: Luminex regular beads (#7), IVIg diluted 1:4
HLA-B*1501 (B62) (human) = experiment: Luminex regular beads (#7), IVIg diluted 1:4
HLA-B*1302 (B13) (human) = experiment: Luminex regular beads (#7), IVIg diluted 1:4
HLA-B*1511 (B75) (human) = experiment: Luminex regular beads (#7), IVIg diluted 1:4
HLA-B*1801 (B18) (human) = experiment: Luminex regular beads (#7), IVIg diluted 1:4
HLA-B*1301 (B13) (human) = experiment: Luminex regular beads (#7), IVIg diluted 1:4
HLA-B*0702 (B7) (human) = experiment: Luminex regular beads (#7), IVIg diluted 1:4
HLA-B*1503 (B72) (human) = experiment: Luminex regular beads (#7), IVIg diluted 1:4
HLA-B*1402 (B65) (human) = experiment: Luminex regular beads (#7), IVIg diluted 1:4
HLA-B*1516 (B63) (human) = experiment: Luminex regular beads (#7), IVIg diluted 1:4
[4] = target: HLA-B*4701 (B47) single antigen on Luminex beads (human); experiment: Luminex single antigen, iBead vs regular bead, IVIg 1:8
[5] = target: HLA-B*3701 (B37) single antigen on Luminex beads (human); experiment: as above
[6] = target: HLA-B*4402 (B44) single antigen on Luminex beads (human); experiment: as above
[7] = target: HLA-B*3801 (B38) single antigen on Luminex beads (human); experiment: as above
[8] = target: HLA-B*4403 (B44) single antigen on Luminex beads (human); experiment: as above
[9] = target: HLA-B*4101 (B41) single antigen on Luminex beads (human); experiment: as above
[10] = target: HLA-B*4001 (B60) single antigen on Luminex beads (human); experiment: as above
[11] = target: HLA-B*2705 (B27) single antigen on Luminex beads (human); experiment: as above
[12] = target: HLA-B*3901 (B39) single antigen on Luminex beads (human); experiment: as above
[13] = target: HLA-B*4006 (B61) single antigen on Luminex beads (human); experiment: Luminex single antigen, iBeads (#6), IVIg 1:8
[14] = target: HLA-B*3501 (B35) single antigen on Luminex beads (human); experiment: Luminex single antigen, iBeads (#6), IVIg 1:8
[15] = target: HLA-B*4601 (B46) single antigen on Luminex beads (human); experiment: Luminex single antigen, iBeads (#6), IVIg 1:8
[16] = target: HLA-B*4701 (B47) single antigen on Luminex beads (human); experiment: Luminex single antigen, iBeads (#6), IVIg 1:8
[17] = target: HLA-B*3701 (B37) single antigen on Luminex beads (human); experiment: Luminex single antigen, iBeads (#6), IVIg 1:8
[18] = target: HLA-B*4402 (B44) single antigen on Luminex beads (human); experiment: Luminex single antigen, iBeads (#6), IVIg 1:8
[19] = target: HLA-B*3801 (B38) single antigen on Luminex beads (human); experiment: Luminex single antigen, iBeads (#6), IVIg 1:8
[20] = target: HLA-B*2708 (B27) single antigen on Luminex beads (human); experiment: Luminex single antigen, iBeads (#6), IVIg 1:8
[21] = target: HLA-B*4403 (B44) single antigen on Luminex beads (human); experiment: Luminex single antigen, iBeads (#6), IVIg 1:8
[22] = target: HLA-B*4201 (B42) single antigen on Luminex beads (human); experiment: Luminex single antigen, iBeads (#6), IVIg 1:8
[23] = target: HLA-B*4002 (B61) single antigen on Luminex beads (human); experiment: Luminex single antigen, iBeads (#6), IVIg 1:8
[24] = target: HLA-B*4101 (B41) single antigen on Luminex beads (human); experiment: Luminex single antigen, iBeads (#6), IVIg 1:8
[25] = target: HLA-B*4001 (B60) single antigen on Luminex beads (human); experiment: Luminex single antigen, iBeads (#6), IVIg 1:8
[26] = target: HLA-B*2705 (B27) single antigen on Luminex beads (human); experiment: Luminex single antigen, iBeads (#6), IVIg 1:8
[27] = target: HLA-B*3901 (B39) single antigen on Luminex beads (human); experiment: Luminex single antigen, iBeads (#6), IVIg 1:8
[28] = target: Albumin on negative control beads (serum albumin, HSA/BSA) (human or bovine); experiment: Luminex single antigen beads, iBeads (#6), 1:8
[29] = target: HLA-A*0301 (A3) on single antigen beads (human) (UniProt P04439); experiment: Luminex single antigen beads, iBeads (#6), 1:8

## IVIg Sandoglobulin (Novartis, Basel, Switzerland) (antibody)
[1]
  Difference % (iBead MFI against regular bead MFI): 41%
[2]
  Difference % (iBead MFI against regular bead MFI): 31%
[3]
  Difference % (iBead MFI against regular bead MFI): 68%
HLA-B*0801 (B8) (human)
  MFI: 233 MFI
HLA-B*1510 (B71) (human)
  MFI: 240 MFI
HLA-B*1502 (B75) (human)
  MFI: 157 MFI
HLA-B*1401 (B64) (human)
  MFI: 621 MFI
HLA-B*1501 (B62) (human)
  MFI: 0 MFI
HLA-B*1302 (B13) (human)
  MFI: 476 MFI
HLA-B*1511 (B75) (human)
  MFI: 637 MFI
HLA-B*1801 (B18) (human)
  MFI: 0 MFI
HLA-B*1301 (B13) (human)
  MFI: 524 MFI
HLA-B*0702 (B7) (human)
  MFI: 309 MFI
HLA-B*1503 (B72) (human)
  MFI: 0 MFI
HLA-B*1402 (B65) (human)
  MFI: 239 MFI
HLA-B*1516 (B63) (human)
  MFI: 799 MFI

## Octagam (IVIg, Octapharma, Lachen, Switzerland) (antibody)
[4]
  Difference % (iBead against regular bead MFI): -57%
[5]
  Difference % (iBead against regular bead MFI): -100%
[6]
  Difference % (iBead against regular bead MFI): -82%
[7]
  Difference % (iBead against regular bead MFI): -100%
[8]
  Difference % (iBead against regular bead MFI): -39%
[9]
  Difference % (iBead against regular bead MFI): -100%
[10]
  Difference % (iBead against regular bead MFI): -100%
[11]
  Difference % (iBead against regular bead MFI): -100%
[12]
  Difference % (iBead against regular bead MFI): 0%
[13]
  MFI: 167 MFI
[14]
  MFI: 0 MFI
[15]
  MFI: 526 MFI
[16]
  MFI: 955 MFI
[17]
  MFI: 0 MFI
[18]
  MFI: 702 MFI
[19]
  MFI: 0 MFI
[20]
  MFI: 0 MFI
[21]
  MFI: 698 MFI
[22]
  MFI: 0 MFI
[23]
  MFI: 0 MFI
[24]
  MFI: 0 MFI
[25]
  MFI: 4 MFI
[26]
  MFI: 0 MFI
[27]
  MFI: 0 MFI
[28]
  MFI: 1670 MFI
[29]
  MFI: 0 MFI

From patent publication US10800847
